Assays:
[1] = biological target: C-terminus of hEAG1 (M478-S962) labeled with Cerulean (human) (UniProt O95259); assay: FRET or BRET; acceptor photobleaching FRET in co-transfected HEK-293 cells; Cerulean on hEAG1 (donor), YFP on CaM (acceptor); 1 uM ionomycin in Ringer solution with 1.8 mM CaCl2 (+Ca2+), 10 min at 37 C, then fixed with 4% formaldehyde
[2] = biological target: full-length hEAG1 labeled with Cerulean (human) (UniProt O95259); assay: as above
[3] = biological target: full-length hEAG1 mutated in BD-N (F151S, A152S) labeled with Cerulean (human) (UniProt O95259); assay: as above
[4] = biological target: full-length hEAG1 with mutated BD-C2 (F714S, F717S) labeled with Cerulean (human) (UniProt O95259); assay: as above
[5] = biological target: full-length hEAG1 labeled with Cerulean (human) (UniProt O95259); assay: FRET or BRET; acceptor photobleaching FRET in co-transfected HEK-293 cells; Cerulean on hEAG1 (donor), YFP on CaM (acceptor); 1 uM ionomycin in Ca2+- and Mg2+-free Ringer solution with 1 mM EGTA (-Ca2+), 10 min at 37 C, then fixed with 4% formaldehyde
[6] = biological target: full-length hEAG1 with mutated BD-C2 (F714S, F717S) labeled with Cerulean (human) (UniProt O95259); assay: as above

full-length hEAG1 labeled with Cerulean (human), sequence (O95259 other isoform, or with tags, fused parts or gaps): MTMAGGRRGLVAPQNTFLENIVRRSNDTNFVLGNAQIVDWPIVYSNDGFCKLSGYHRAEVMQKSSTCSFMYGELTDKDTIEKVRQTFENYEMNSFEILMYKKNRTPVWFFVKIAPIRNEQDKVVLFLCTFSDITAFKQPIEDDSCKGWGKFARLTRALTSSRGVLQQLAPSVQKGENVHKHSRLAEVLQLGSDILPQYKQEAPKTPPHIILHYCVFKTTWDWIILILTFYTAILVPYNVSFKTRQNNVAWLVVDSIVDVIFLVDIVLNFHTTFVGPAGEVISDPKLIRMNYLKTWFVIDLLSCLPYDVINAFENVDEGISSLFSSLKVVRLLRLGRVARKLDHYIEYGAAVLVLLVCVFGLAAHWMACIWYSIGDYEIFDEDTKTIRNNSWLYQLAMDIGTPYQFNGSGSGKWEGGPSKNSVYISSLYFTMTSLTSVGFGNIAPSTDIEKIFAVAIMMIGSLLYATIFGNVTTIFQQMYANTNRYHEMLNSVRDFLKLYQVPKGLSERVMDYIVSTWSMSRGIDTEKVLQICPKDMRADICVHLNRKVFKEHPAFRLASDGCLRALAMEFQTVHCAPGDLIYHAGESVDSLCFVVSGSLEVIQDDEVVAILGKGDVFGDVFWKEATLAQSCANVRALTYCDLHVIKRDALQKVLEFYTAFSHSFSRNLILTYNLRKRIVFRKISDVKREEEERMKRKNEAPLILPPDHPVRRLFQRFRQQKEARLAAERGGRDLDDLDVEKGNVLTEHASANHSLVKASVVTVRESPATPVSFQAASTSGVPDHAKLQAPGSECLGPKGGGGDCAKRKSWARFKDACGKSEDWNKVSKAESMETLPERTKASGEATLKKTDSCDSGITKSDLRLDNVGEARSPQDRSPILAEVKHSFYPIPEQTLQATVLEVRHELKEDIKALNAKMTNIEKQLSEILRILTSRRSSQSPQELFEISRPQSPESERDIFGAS
full-length hEAG1 with mutated BD-C2 (F714S, F717S) labeled with Cerulean (human), sequence (O95259 other isoform, or with tags, fused parts or gaps F714S | F717S | F714S F717S): as the sequence (O95259 other isoform, or with tags, fused parts or gaps) above, with F714S, F717S counted along it
C-terminus of hEAG1 (M478-S962) labeled with Cerulean (human), sequence (O95259 505-989): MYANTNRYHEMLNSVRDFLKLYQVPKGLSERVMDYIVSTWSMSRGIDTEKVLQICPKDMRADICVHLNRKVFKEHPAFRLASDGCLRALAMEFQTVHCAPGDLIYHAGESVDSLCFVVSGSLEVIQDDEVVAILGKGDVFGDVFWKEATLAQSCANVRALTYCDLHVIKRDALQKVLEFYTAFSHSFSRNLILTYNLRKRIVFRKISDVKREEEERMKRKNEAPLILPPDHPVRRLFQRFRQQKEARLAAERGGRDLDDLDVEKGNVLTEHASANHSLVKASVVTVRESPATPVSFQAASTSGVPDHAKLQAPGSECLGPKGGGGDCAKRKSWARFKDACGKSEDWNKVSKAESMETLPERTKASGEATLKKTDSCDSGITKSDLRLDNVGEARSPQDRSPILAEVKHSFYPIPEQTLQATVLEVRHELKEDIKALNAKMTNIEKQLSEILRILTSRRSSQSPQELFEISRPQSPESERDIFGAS
full-length hEAG1 mutated in BD-N (F151S, A152S) labeled with Cerulean (human), sequence (O95259 other isoform, or with tags, fused parts or gaps F151S | A152S | F151S A152S): as the sequence (O95259 other isoform, or with tags, fused parts or gaps) above, with F151S, A152S counted along it

Substance: N-terminally YFP-labeled calmodulin (rat calmodulin II) (from UniProt P0DP30 1-149) (natural protein)
- mean FRET efficiency [1]: 9.5%
- FRET efficiency [2]: 17%
- FRET efficiency [3]: 9.8%
- FRET efficiency [4]: 8.7%
- FRET efficiency [5]: 10.1%
- FRET efficiency [6]: 11.5%
